According to patent EP2899279A1:

T1: Grapevine fanleaf virus strain F13 (purified viral particles) (Grapevine fanleaf virus, strain F13) (UniProt P18474)
T1 sequence (looked up): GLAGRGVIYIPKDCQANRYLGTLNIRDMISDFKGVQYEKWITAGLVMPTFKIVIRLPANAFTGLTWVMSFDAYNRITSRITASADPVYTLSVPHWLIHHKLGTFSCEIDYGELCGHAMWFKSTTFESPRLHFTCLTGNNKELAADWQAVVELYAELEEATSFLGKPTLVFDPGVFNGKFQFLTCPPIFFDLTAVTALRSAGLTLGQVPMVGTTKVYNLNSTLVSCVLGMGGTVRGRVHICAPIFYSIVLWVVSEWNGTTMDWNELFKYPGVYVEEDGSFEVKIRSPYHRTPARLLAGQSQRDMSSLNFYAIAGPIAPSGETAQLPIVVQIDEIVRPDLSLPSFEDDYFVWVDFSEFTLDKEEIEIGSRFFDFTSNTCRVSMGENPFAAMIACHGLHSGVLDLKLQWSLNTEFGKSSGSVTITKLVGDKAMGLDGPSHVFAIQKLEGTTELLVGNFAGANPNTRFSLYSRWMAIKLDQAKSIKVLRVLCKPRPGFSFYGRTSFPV

B1: Nb23:EGFP fusion protein (Nb23:EGFP:His6, expressed in E. coli) (protein, part only; not given: EGFP and cloning residues, not shown: large carriers)
chain, part: QVQLQESGGGSVQVGGSLRVACAASGDTFSGYLAAWFRQAPGKGREGVAAINSKRHTTSYADSVKGRFTISKDNADNIMYLEMNSLKPEDTAIYYCAAADAIGLAEYWSTPTLSAARYKYWGQGTQVTVSSGGGSGGGHHHHHH
B2: Nb23 (His6-tagged, purified from E. coli) (VHH)
VHH: QVQLQESGGGSVQVGGSLRVACAASGDTFSGYLAAWFRQAPGKGREGVAAINSKRHTTSYADSVKGRFTISKDNADNIMYLEMNSLKPEDTAIYYCAAADAIGLAEYWSTPTLSAARYKYWGQGTQVTVSS

Key:
[1] = target: T1, Grapevine fanleaf virus strain F13 (purified viral particles) (Grapevine fanleaf virus, strain F13); assay: dynamic light scattering: GFLV-F13 at 0.1 mg/ml with Nb23:EGFP at 0.9 mg/ml; virus alone 32 nm
[2] = target: T1, Grapevine fanleaf virus strain F13 (purified viral particles) (Grapevine fanleaf virus, strain F13); assay: dynamic light scattering: GFLV-F13 at 0.1 mg/ml with Nb23 at 0.1 mg/ml; virus alone 32 nm

| Binder | average hydrodynamic diameter of viral particles in the presence of the binder [1] [nm] | average hydrodynamic diameter of viral particles in the presence of the binder [2] [nm] |
| --- | --- | --- |
| B1 | 43.8 |  |
| B2 |  | 37.8 |
